We go through five molecules from paper PMC11446282.

For one experiment, the system named is B55α interactors. Nature of the experiment: MS analysis of B55α WT, V228A, I284A, S287A and D340A immunopurifications. The conditions noted are these: log2 ratio of interactor abundance, 4 replicates each, normalised to bait B55α; for log2_ratio_D340_WT: B55α D340A vs WT immunopurification; for log2_ratio I284_WT: B55α I284A vs WT immunopurification; for log2_ratio S287_WT: B55α S287A vs WT immunopurification; for log2_ratio V228_WT: B55α V228A vs WT immunopurification. The experiment is classed as binding, human. Summed up: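 YFP-tagged B55α wild type or point mutants transiently expressed in HeLa cells for 24 h, then pulled down with GFP-Trap at 4 °C in 50 mM Tris pH 7.5/50 mM NaCl/0.1% NP-40 buffer and analysed by LC-MS/MS. Peptides filtered to <1% FDR, quantified by iBAQ with bait abundance normalized across samples; two-tailed Student's t test.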

The test system of another experiment is PP2A-B55 isoforms. Type of experiment: binding, human. Particulars: MS, n = 4; for log2_ratio WT_M: YFP-PME1 wild-type versus mutant IP; for log2_ratio WT_C: wild-type versus control IP. How it is done: Standard cloning techniques were used throughout. Point mutations were introduced by whole plasmid polymerase chain reaction (PCR). All constructs were fully sequenced. Synthetic DNA was purchased from GeneArt, Life Technologies and cloned into pcDNA5/FRT/TO (Invitrogen) expression vector containing YFP, resulting in the indicated YFP fusion proteins. These constructs were transiently transfected into HeLa cells 24 hours before harvesting cells. Cells were lysed in lysis buffer [50 mM tris-HCl (pH 7.5), 50 mM NaCl, 1 mM EDTA, 1 mM […], and 0.1% NP-40]. Complexes were immunoprecipitated at 4°C in lysis buffer with green fluorescent protein (GFP)–Trap (ChromoTek) and washed in lysis buffer. Precipitated protein complexes were washed three times in lysis buffer, eluted in 2× SDS sample buffer, and subjected to Western blotting or MS as indicated.
Pull-downs were analyzed on a Q-Exactive Plus quadrupole or Fusion Orbitrap Lumos mass spectrometer (Thermo Fisher Scientific) equipped with Easy-nLC 1000 or […] (Thermo Fisher Scientific) and nanospray source (Thermo Fisher Scientific). Peptides were resuspended in 5% methanol/1% formic acid and loaded onto a trap column [1 cm in length, 100 μm in inner diameter, ReproSil, C18 AQ 5-μm 120-Å pore (Dr. Maisch, Ammerbuch, Germany)] vented to waste via a micro-tee and eluted across a fritless analytical resolving column (35 cm in length, 100 μm in inner diameter, ReproSil, C18 AQ 3-μm 120-Å pore) pulled in-house (Sutter P-2000, Sutter Instruments, San Francisco, CA) with a 45-min gradient of 5 to 30% liquid chromatography–MS (LC-MS) buffer B (LC-MS buffer A: 0.0625% formic acid and 3% acetonitrile (ACN); LC-MS buffer B: 0.0625% formic acid, 95% ACN Q-Exactive Plus quadrupole or 0.0625% formic acid and 80% ACN Fusion Orbitrap Lumos mass).
Static modifications included carbamidomethylcysteine, and variable modifications included oxidized methionine and STY phosphorylation. Searches were filtered using orthogonal measures including mass measurement accuracy (±3 parts per million), Xcorr for charges from +2 to +4, and dCn targeting a <1% false discovery rate at the peptide level. Quantification of LC-MS/MS spectra was performed using MassChroQ ([57]) and the iBAQ method ([58]). All data were analyzed using R 4.3.0. Missing values were imputed from a normal distribution. To be included in further analysis, proteins had to be identified with more than 1 total peptide and quantified in two or more replicates of each sample. In each dataset, the abundance of the protein of interest was normalized to be equal across all samples. Statistical analyses were done using a two-tailed Student’s t test.

The target in the next experiment is T1, B55α (Homo sapiens, UniProt P63151).
T1 construct: His; made in house; host or cells: HEK293 cells
T1 sequence (P63151 1-447): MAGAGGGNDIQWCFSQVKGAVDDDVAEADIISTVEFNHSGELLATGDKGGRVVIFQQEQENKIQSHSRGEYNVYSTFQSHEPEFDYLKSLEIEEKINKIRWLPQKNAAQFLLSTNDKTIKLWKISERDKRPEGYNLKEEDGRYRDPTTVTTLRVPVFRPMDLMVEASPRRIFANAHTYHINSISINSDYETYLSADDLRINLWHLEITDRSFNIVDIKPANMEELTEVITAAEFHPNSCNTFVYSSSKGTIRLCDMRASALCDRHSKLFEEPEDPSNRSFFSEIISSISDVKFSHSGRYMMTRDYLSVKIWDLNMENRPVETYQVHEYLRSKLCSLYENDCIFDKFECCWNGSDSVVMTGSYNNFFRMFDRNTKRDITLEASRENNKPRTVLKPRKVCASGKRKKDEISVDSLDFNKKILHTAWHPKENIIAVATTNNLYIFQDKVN
Nature of the experiment: Surface plasmon resonance with captured Twin-Strep B55α. Particulars: same SPR approach as for B55i; fig. S15. The experiment is classed as binding. For orientation: Surface plasmon resonance follows binding to a sensor surface in real time, without labels.

Where [1] appears, read: prey 2ABA_HUMAN (PPP2R2A, B55 alpha).
[2] abbreviates: prey 2ABB_HUMAN (PPP2R2B, B55 beta).
[3] abbreviates: prey 2ABD_HUMAN (PPP2R2D, B55 delta).
Setting [4] is: prey 2ABG_HUMAN (PPP2R2C, B55 gamma).

Like-named read-outs stand apart in the source and are kept apart here.

B1: BAG2_HUMAN (protein, UniProt O95816 2-211, looked up)
BAG family molecular …: AQAKINAKANEGRFCRSSSMADRSSRLLESLDQLELRVEALREAATAVEQEKEILLEMIHSIQNSQDMRQISDGEREELNLTANRLMGRTLTVEVSVETIRNPQQQESLKHATRIIDEVVNKFLDDLGNAKSHLMSLYSACSSEVPHGPVDQKFQSIVIGCALEDQKKIKRRLETLLRNIENSDKAIKLLEHSKGAGSKTLQQNAESRFN
Take B1: in the experiment on B55α interactors, the log2_ratio_D340_WT is given as -0.69, the “log2_ratio I284_WT” value was -0.54, the “log2_ratio S287_WT” value is reported as 0.19 and the “log2_ratio V228_WT” value is reported as -0.43.

B2: PME1 wt (protein, UniProt Q9Y570 2-386, looked up)
Protein phosphatase …: SALEKSMHLGRLPSRPPLPGSGGSQSGAKMRMGPGRKRDFSPVPWSQYFESMEDVEVENETGKDTFRVYKSGSEGPVLLLLHGGGHSALSWAVFTAAIISRVQCRIVALDLRSHGETKVKNPEDLSAETMAKDVGNVVEAMYGDLPPPIMLIGHSMGGAIAVHTASSNLVPSLLGLCMIDVVEGTAMDALNSMQNFLRGRPKTFKSLENAIEWSVKSGQIRNLESARVSMVGQVKQCEGITSPEGSKSIVEGIIEEEEEDEEGSESISKRKKEDDMETKKDHPYTWRIELAKTEKYWDGWFRGLSNLFLSCPIPKLLLLAGVDRLDKDLTIGQMQGKFQMQVLPQCGHAVHEDAPDKVAEAVATFLIRHRFAEPIGGFQCVFPGC
B2: the “log2_ratio WT_M” value came to 1.05 with PP2A-B55 isoforms (prey 2AAA_HUMAN (PPP2R1A)); 1.40 in the experiment on PP2A-B55 isoforms (prey 2AAB_HUMAN (PPP2R1B)); 8.62 in the experiment on PP2A-B55 isoforms (setting [1]); 4.68 with PP2A-B55 isoforms (setting [2]); 5.74 in the experiment on PP2A-B55 isoforms (setting [3]); 6.08 in the experiment on PP2A-B55 isoforms (setting [4]). Also, the “log2_ratio WT_M” value in the experiment on PP2A-B55 isoforms (prey PP2AA_HUMAN (PPP2CA)) stood at 0.66; with PP2A-B55 isoforms (prey PP2AB_HUMAN (PPP2CB)), 0.69. The “log2_ratio WT_C” value turned out to be 8.03 in the experiment with PP2A-B55 isoforms (prey 2AAA_HUMAN (PPP2R1A)); 6.19 with PP2A-B55 isoforms (prey 2AAB_HUMAN (PPP2R1B)); 8.40 with PP2A-B55 isoforms (setting [1]); 4.02 in the experiment with PP2A-B55 isoforms (setting [2]); 6.24 with PP2A-B55 isoforms (setting [3]); 5.83 in the experiment on PP2A-B55 isoforms (setting [4]). The “log2_ratio WT_C” value with PP2A-B55 isoforms (prey PP2AA_HUMAN (PPP2CA)) is 9.04; in the experiment on PP2A-B55 isoforms (prey PP2AB_HUMAN (PPP2CB)), 8.00.

B3: Arpp19: full-length Arpp19 protein (S62E in the SPR method) (protein, UniProt P56211 1-112, looked up, variant S62E)
chain: MSAEVPEAASAEEQKEMEDKVTSPEKAEEAKLKARYPHLGQKPGGSDFLRKRLQKGQKYFDEGDYNMAKAKMKNKQLPTAAPDKTEVTGDHIPTPQDLPQRKPSLVASKLAG
modifications: full-length
Take B3: the “binding to B55α, affinity range” value in the experiment with B55α is “low micromolar”.

B4: PME1: full-length PME1 protein expressed in BL21(DE3) (protein)
chain: MSALEKSMHLGRLPSRPPLPGSGGSQSGAKMRMGPGRKRDFSPVPWSQYFESMEDVEVENETGKDTFRVYKSGSEGPVLLLLHGGGHSALSWAVFTAAIISRVQCRIVALDLRSHGETKVKNPEDLSAETMAKDVGNVVEAMYGDLPPPIMLIGHSMGGAIAVHTASSNLVPSLLGLCMIDVVEGTAMDALNSMQNFLRGRPKTFKSLENAIEWSVKSGQIRNLESARVSMVGQVKQCEGITSPEGSKSIVEGIIEEEEEDEEGSESISKRKKEDDMETKKDHPYTWRIELAKTEKYWDGWFRGLSNLFLSCPIPKLLLLAGVDRLDKDLTIGQMQGKFQMQVLPQCGHAVHEDAPDKVAEAVATFLIRHRFAEPIGGFQCVFPGC
As for B4, the “binding to B55α, affinity range” value with B55α was “low micromolar”.

B5: PDE8B_HUMAN (protein, UniProt O95263 1-885, looked up)
High affinity cAMP-specific …: MGCAPSIHVSQSGVIYCRDSDESSSPRQTTSVSQGPAAPLPGLFVQTDAADAIPPSRASGPPSVARVRRARTELGSGSSAGSAAPAATTSRGRRRHCCSSAEAETQTCYTSVKQVSSAEVRIGPMRLTQDPIQVLLIFAKEDSQSDGFWWACDRAGYRCNIARTPESALECFLDKHHEIIVIDHRQTQNFDAEAVCRSIRATNPSEHTVILAVVSRVSDDHEEASVLPLLHAGFNRRFMENSSIIACYNELIQIEHGEVRSQFKLRACNSVFTALDHCHEAIEITSDDHVIQYVNPAFERMMGYHKGELLGKELADLPKSDKNRADLLDTINTCIKKGKEWQGVYYARRKSGDSIQQHVKITPVIGQGGKIRHFVSLKKLCCTTDNNKQIHKIHRDSGDNSQTEPHSFRYKNRRKESIDVKSISSRGSDAPSLQNRRYPSMARIHSMTIEAPITKVINIINAAQENSPVTVAEALDRVLEILRTTELYSPQLGTKDEDPHTSDLVGGLMTDGLRRLSGNEYVFTKNVHQSHSHLAMPITINDVPPCISQLLDNEESWDFNIFELEAITHKRPLVYLGLKVFSRFGVCEFLNCSETTLRAWFQVIEANYHSSNAYHNSTHAADVLHATAFFLGKERVKGSLDQLDEVAALIAATVHDVDHPGRTNSFLCNAGSELAVLYNDTAVLESHHTALAFQLTVKDTKCNIFKNIDRNHYRTLRQAIIDMVLATEMTKHFEHVNKFVNSINKPMAAEIEGSDCECNPAGKNFPENQILIKRMMIKCADVANPCRPLDLCIEWAGRISEEYFAQTDEEKRQGLPVVMPVFDRNTCSIPKSQISFIDYFITDMFDAWDAFAHLPALMQHLADNYKHWKTLDDLKCKSLRLPSDS
Regarding B5, in the experiment with B55α interactors, the log2_ratio_D340_WT is on record as 3.81, the “log2_ratio I284_WT” value is on record as 0.83, the “log2_ratio S287_WT” value stood at 4.46 and the “log2_ratio V228_WT” value is 5.00.
